# In article PMC5141474, “Diverse specificity of cellulosome attachment to the bacterial cell surface” (Scientific Reports, 2016):
# T1: C. thermocellum ScaF Coh (type-II cohesin of anchoring scaffoldin ScaF), expressed on its own (Clostridium thermocellum, UniProt P71143 29-200)
# T1 construct: single type-II cohesin of anchoring scaffoldin ScaF of Clostridium thermocellum (the Coh of PDB 2b59 and 2bm3); also called CohScaF; source: E. coli BL21 (DE3), pET28a, purified (IMAC)
# T1 sequence (looked up): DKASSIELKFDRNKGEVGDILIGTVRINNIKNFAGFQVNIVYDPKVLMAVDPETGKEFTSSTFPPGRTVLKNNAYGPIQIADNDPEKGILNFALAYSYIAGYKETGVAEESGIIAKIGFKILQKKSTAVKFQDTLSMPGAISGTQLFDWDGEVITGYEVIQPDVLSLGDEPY
# Experiments:
# Assay in all cases: ITC; VP-ITC, 318.15 K; Doc in the cell, Coh injected (28 x 10 uL); single site-binding model; proteins in 50 mM HEPES pH 7.5, 2 mM CaCl2, 0.5 mM TCEP
# [1] = target: C. thermocellum CipB XDoc (X-module and type-II dockerin of CipB), expressed on its own (Clostridium thermocellum) (UniProt A3DGE8)
# [2] = target: C. thermocellum CipB XDoc F148A (Clostridium thermocellum)
# [3] = target: C. thermocellum CipB XDoc I154A (Clostridium thermocellum)
# [4] = target: C. thermocellum CipB XDoc M114A (Clostridium thermocellum)
# [5] = target: C. thermocellum CipB XDoc M118A (Clostridium thermocellum)
# [6] = target: C. thermocellum CipB XDoc S121A (Clostridium thermocellum)
# [7] = target: T1, C. thermocellum ScaF Coh (type-II …); conditions: both partners purified
Ka [1] [M⁻¹],dH [1] [kcal/mol],Ka [2] [M⁻¹],dH [2] [kcal/mol],stoichiometry N [2],Ka [3] [M⁻¹],dH [3] [kcal/mol],stoichiometry N [3],dH [4] [kcal/mol],dH [5] [kcal/mol],dH [6] [kcal/mol],stoichiometry N [1],Ka [4] [M⁻¹],stoichiometry N [4],Ka [5] [M⁻¹],stoichiometry N [5],Ka [6] [M⁻¹],stoichiometry N [6],Ka [7] [M⁻¹],Molecule
> 1e+09,-12.4,619000,-8.83,1.01,1.2e+06,-9.75,1.02,-10.4,-8.66,-10.3,,,,,,,,,"C. thermocellum ScaC2 Coh (type-II cohesin of anchoring scaffoldin ScaC), expressed on its own (domain or fragment)"
1.21e+07,-8.27,,,,1.08e+07,-17.3,1.03,-13,-25.5,-6.93,1,7.17e+06,1.01,6.96e+06,0.99,9.16e+06,1.01,,C. thermocellum ScaE6 Coh (type-II cohesin of scaffoldin ScaE) (domain or fragment)
,,,,,,,,,,,,,,,,,,> 1e+09,"C. thermocellum CipB XDoc (X-module and type-II dockerin of CipB), expressed on its own (domain or fragment, Clostridium thermocellum, CipB (ORF Cthe_1806, 2177 amino acids) of Clostridium thermocellum: X-module and C-terminal type-II dockerin (XDoc); numbers count on: the recombinant XDoc chain (X-module 1-98, Doc 99-164); also called XDocCipB; CipB type-II Doc; source: E. coli Tuner (DE3), pET21a, purified (IMAC)) NNDSTDKTTVSGYISVDFDYPPESESKIKSGFNVKVAGTELSTKTDEKGYFEISGIPGDMREFTLEISKRNYLKRNVTVNGTGKLVVSTEDNPLILWAGDVERKGVQDNAINMVDVMEISKVFGTRAGDEEYVAELDLNMDGAINLFDIAIVIRHFNALPSRY"
